{"source": "patent US7741096B2", "about": "“Crystal structure of hepatocyte growth factor activator complexed with Kunitz domain inhibitor” (Genentech, Inc., priority 2004, dated 2010)", "key": {"[1]": {"target": "T1, Thrombin (Homo sapiens, UniProt P00734)", "T1 construct": "purchased Haematologic Technologies", "experiment": "Chromogenic substrate enzyme inhibition assay, thrombin", "format": "biochemical", "details": "substrate S2366, read-out: KD1 IC50", "source_text": "(§1) The following synthetic substrates were used to measure enzyme activities: Spectrozyme® fvIIa (American Diagnostica, Stamford, Conn.) for HGFA and ChromozymtPA (Roche Molecular Biochemicals, Indianapolis, Ind.) for tissue factor/FVIIa. The following substrates were from Diapharma, Westchester, Ohio: S2222 for factor Xa, S2302 for plasma kallikrein, S2366 for activated protein C, thrombin, hepsin and plasmin, S2444 for uPA, S2288 for factor XIa, FXIIa and tPA, S2765 for matriptase complement factor C1s, chymotrypsin and trypsin. Except for bovine trypsin (Worthington, Lakewood, N.J.), all enzymes used were of human origin. Factor Xa, factor XIa, thrombin, activated protein C and plasmin were from Haematologic Technologies (Essex Junction, Vt.). […]\n(§2) The inhibitory activity of KD1 towards a panel of trypsin-like serine proteases was examined using assay conditions as described for measuring the inhibitory activity of HAI-1B ectodomain. […] After 20 min. incubation at room temperature, the appropriate substrate was added and the linear rates of substrate hydrolysis were determined by measuring the change in absorbance at 405 nm on a kinetic microplate reader (Molecular Devices, Sunnyvale, Calif.). […]"}, "[2]": {"target": "T2, uPA (Homo sapiens, UniProt P00749)", "T2 construct": "purchased Chemicon", "experiment": "Chromogenic substrate enzyme inhibition assay, uPA", "format": "biochemical", "details": "substrate S2444, read-out: KD1 IC50", "source_text": "as §1, §2"}}}
{"substance": "KD1: The first Kunitz domain of human HAI-1B, amino acids 246-303 (SEQ ID NO: 4), with polyhistidine leader, expressed in E. coli", "values": [{"measurement": "IC50", "setting": "[1]", "result": "> 1", "unit": "µM"}, {"measurement": "IC50", "setting": "[2]", "result": "> 1", "unit": "µM"}]}
